Assay results as given in US20250221936A1, “ENGINEERED HEMICHANNELS, ENGINEERED VESICLES, AND USES THEREOF” (VIRGINIA TECH INTELLECTUAL PROPERTIES, INC., priority 2018, published 2025).
No end group written: not given here.

Columns and labels:
[1] = test system: EVs isolated from cow milk; assay: Milk EV loading with Calcein AM; conditions: 0.1 and 1 μM
Description: EVs were isolated from cow milk and loaded with neutral non-fluorescent Calcein AM (10 μM) for 48 hours at 37 C in PBS buffer at pH 8.5 (FIG. 30A). […] Purity and integrity of exosomes isolated from cow milk was confirmed by negative stain electron microscopy (EM). FIG. 30B) illustrates an exosome isolated from cow milk. Scale bar=50 nm. The methods described herein of isolation from milk were adapted to obtain high yields of EV, taking particular care not to cause rapid and/or large-scale precipitation of milk casein, as well as in centrifugation steps, which can reduce EV yields from milk.
An exemplar of these methods is shown in FIGS. 31A-31C wherein Milk EVs incubated with Calcein AM show time-(FIG. 31A), pH-(FIG. 31B) and concentration-dependent effects on uptake of Calcein by EVs. Important to this method in the case of Calcein AM, are the multiple chemical groups linked by ester bonds to the molecule, which shield it's negatively charged moieties. Cleavage of these groups by ester bond breaking activities within EVs results in Calcein becoming negatively charged, fluorescent and retained within the EV—as exemplified by the green spots seen in most figure panels in FIG. 31. In FIG. 31A EVs are illustrated that were incubated for 1, 2 or 3 hours in PBS at 37 C at pH 7.4 with Calcein AM (5 μM). […]

[2] = test system: HC (hemichannel) activity; assay: Hemichannel block in perfused hearts; set-up: species or system mouse; conditions: 2 micromolar for 20 minutes before biotin-alphaCT11 infusion
Description: Briefly, isolated mouse hearts were perfused with 2 micromolar carbenoxolone for 20 minutes to block HC (hemichannel) activity prior to a 20 minute infusion with biotinylated alpha CT11 (biotin-alphaCT11) according to the method described in Example 20. […] Biotinylated alpha CT11 was detected and measured on LV cryosections by streptavidin Alexa647 as noted in association with FIGS. 18A-18E.

[3] = molecular target: Connexin 43 hemichannels (Homo sapiens, UniProt P17302); format: cell-based; conditions: 0.1 mM Ca^2+; Gap19 (200 μM)
Sequence of Connexin 43 hemichannels (P17302 2-382 limits assumed): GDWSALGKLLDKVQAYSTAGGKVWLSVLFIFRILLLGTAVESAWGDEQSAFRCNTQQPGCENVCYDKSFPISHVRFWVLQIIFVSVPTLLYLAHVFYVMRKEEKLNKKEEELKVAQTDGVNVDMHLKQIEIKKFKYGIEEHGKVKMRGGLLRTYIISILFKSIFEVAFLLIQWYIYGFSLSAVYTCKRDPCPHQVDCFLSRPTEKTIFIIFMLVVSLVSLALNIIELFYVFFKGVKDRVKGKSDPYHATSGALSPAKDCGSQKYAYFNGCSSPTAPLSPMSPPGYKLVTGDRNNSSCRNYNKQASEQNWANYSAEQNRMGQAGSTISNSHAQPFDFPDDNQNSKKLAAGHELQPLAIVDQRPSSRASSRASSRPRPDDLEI
Description: Media containing 0.1 mM Ca^2+ was used to open Cx43 hemichannels in the presence of 50 μM alphaCT11 peptide and/or the hemichannel blockers; Gap19 (200 μM) and carbenoxolone ([…]).

[4] = format: in vitro ADME
Excerpt: Despite efficacy of these peptides being delivered as unprotected peptide formulations, particularly when devlivered topically, delievery via many routes can be impeaded by degredation inside the body. Many other biologic and small molecule therapeutics also suffer from similar degradeation issues. Indeed, most unprotected short peptides and polynucleotides (e.g. miRNAs) are rapidly degraded in body fluids in vivo, thereby limiting the interest of the pharmaceutical industry in such molecules. This consideration is particularly relevant in pathologic situations, such as the heart post-MI, where hypoxia, oxygen free radicals, and […] prompt upregulation of degradation pathways. […] Protection by being loaded inside of an engineered vesicle can reduce degredation and/or can facilitate delivery of the cargo by forming channels with connexons present in cell membranes. See e.g. FIG. 17.

[5] = molecular target: T1, ZO-1 PDZ2 (Homo sapiens, UniProt Q07157); assay: Protein thermal shift assay, ZO-1 PDZ2; format: binding; conditions: 500 μg/ml protein, 25-100 μM peptide
T1 construct: the second of the three PDZ (PDZ2) domains of ZO-1; made in house; host or cells: E. coli BL21
T1 sequence (Q07157 186-264 limits assumed): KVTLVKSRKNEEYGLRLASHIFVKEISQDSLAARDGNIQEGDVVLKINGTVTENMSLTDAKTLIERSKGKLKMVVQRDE
Description: Thermal stability of recombinant GST-PDZ2 or Cx43 CT in the presence or absence of peptides was determined in a 96-well format. Each assay well was composed of 500 μg/ml protein, 25-100 μM of each peptide in PBS buffer, pH7.4. All assays were performed independently six times. Samples were generally prepared in 96-well plates at final volumes of 20 μL. The fluorescent dye SYPRO Orange (5000× concentrate in DMSO, ThermoFisher, S6650) was added to a final concentration of 8X. Reactions were run on QuantStudio 6 Flex Real-Time PCR system (Applied Biosystems, part of Life Technologies Corporation, CA) according to the manufacturer's recommendations using a melt protocol in 0.05-degree/see increments from 25° C. to 95° C. The Reporter Dye was “ROX” and quencher Dye and passive reference were selected as “None” for the melt curve according to manufacturer's instructions. The data were analyzed using Protein Thermal Shift™ Software v1.3 package (Applied Biosystems, CA).

[6] = molecular target: T2, GST-Cx43 CT (Rattus norvegicus, UniProt P08050); assay: EDC cross-linking of kinase reaction mixtures, Cx43 CT; format: binding; conditions: 5, 10 and 25 μM
T2 construct: pGEX-6-P2 Cx43 CT amino acids 255-382; made in house; host or cells: E. coli BL21
T2 sequence (P08050 255-382): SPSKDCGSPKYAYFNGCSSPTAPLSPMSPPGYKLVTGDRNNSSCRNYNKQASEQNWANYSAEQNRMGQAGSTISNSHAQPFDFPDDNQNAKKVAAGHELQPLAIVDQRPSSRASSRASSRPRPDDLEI
Description: To characterize the interaction between the Cx43 CT substrate and peptides, the in vitro kinase assay was performed as above with modification and the constituents then subjected to a cross-linking reaction. The assay buffer used was 20 mM 3-(N-morpholino) propanesulfonic acid (MOPS), pH 7.2. All other reagents present in the kinase reaction were maintained as described above. The reaction was allowed to proceed at 37° C. for 15 minutes. Afterwards, the carbodiimide crosslinker 1-Ethyl-3-(3-dimethylaminopropyl) carbodiimide HCl (EDC) (Thermo, 22980) was added to each solution for a final concentration of 20 mM. The solution was allowed to cross-link for one hour at room temperature. The reaction was stopped by the addition of 4×LDS loading buffer, boiled for 5 minutes and subsequently separated by PAGE. The resulting gel was stained in Coomassie brilliant blue (Sigma, B0770) for two hours and destained in a solution of 4% methanol 7% acetic acid overnight. Gel bands were subsequently excised for mass spectrometric analysis. For the direct interaction between protein and peptides, PBS, pH 7.5 was used as the coupling buffer. The protein (50 μg/ml) and peptide (25 μM) were allowed to react at room temperature for one hour before EDAC was added to the reaction mixture. The reaction was Western blotted for Cx43, GST or NeutroAvidin. […]

[7] = test system: Hela cells; assay: Cellular uptake of RhodB-aCT11 peptides; format: cell-based; conditions: 200 to 2000 μM, 30 or 90 minutes, 37 C
Excerpt: Cells can take up the peptide, cytoplasmic esterases will cleave the allyl groups converting the peptide to RhodB-aCT11. RhodB-aCT11-Est, or any chemically modified drug molecule designed for cell uptake using ester bonded groups or related chemical modifications, can be packaged as cargo into EVs and exported by the cell into the media. EVs loaded with cargo molecules by this method can then be isolated using standard protocols and used in the treatment and other methods detailed herein.
Monolayers of Hela cells incubated with fluorescent-tagged RhodamineB-aCT11-Est, a cell-permeant peptide with allyl groups linked by ester bonds at aspartic (D) and glutamic (E) acid residues, as well as its carboxyl terminus are shown in FIG. 34A. The cells were incubated for 30 or 90 minutes at 37 C at pH 7.4 with different concentrations of peptides between 200 and 2000 μM. […] Cellular uptake can be observed in FIG. 34A to be particularly evident following 90 minutes at higher peptide concentrations (i.e., >1000 μM). […] RhodB-aCT11-Est taken up in this manner by cells can be packaged as cargo into EVs and following isolation can these EVs be used in treatment and other methods detailed herein.

[8] = molecular target: Cx43 CT (Connexin 43 carboxyl terminus, amino acids 255 to 382) (UniProt P08050 255-382, limits assumed); assay: cell-based or functional assay
Sequence of Cx43 CT (Connexin 43 carboxyl terminus, amino acids 255 to 382) (P08050 255-382 limits assumed): as the sequence (P08050 255-382) above

Q: With `O=S(=O)(F)Cc1ccccc1` [PMSF] as the molecule, how does the “Calcein uptake into and retention within milk EVs” value [1] read?
A: The value was “respectively inhibited and blocked”.

Q: Which results are given for `CC1(C)[C@@H](OC(=O)CCC(=O)O)CC[C@]2(C)[C@H]3C(=O)C=C4[C@@H]5C[C@@](C)(C(=O)O)CC[C@]5(C)CC[C@@]4(C)[C@]3(C)CC[C@@H]12` [carbenoxolone]?
A: cytoplasmic levels of alpha CT11 in myocytes [2]: significant reductions (p<0.05) in cytoplastic levels of alpha CT11; alphaCT11 uptake in presence of hemichannel blocker [3]: Dramatically lower levels of peptide uptake

Q: For “Gap19: Cx43 hemichannel blocker (KQIEIKKFK; Gap19; UniProt P17302 128-136, looked up, fragment)”, which “alphaCT11 uptake in presence of hemichannel blocker” value [3] is on record?
A: The value was “Dramatically lower levels of peptide uptake”.

Q: For RPRPDDLEI [alpha CT11, RPRPDDLEI], which “time to degradation in blood serum” value [4] is on record?
A: The value was “about 30 minutes”.

Q: With “RQPKIWFPNRRKPWKK LPAARIAPR (RQPKIWFPNRRKPWKKLPAARIAPR) [M4 scram., reference compound]” as the molecule, how does the “PDZ2 melt temperature (Tm)” value [5] read?
A: Its value is “PDZ2 interaction incompetent”.

Q: What about the “EDC cross-linking to Cx43 CT” value [6] of the same molecule?
A: Its value is “no evidence of cross-linking”.

Q: With “RhodB-aCT11: fluorescently tagged RhodamineB aCT11 peptide (RPRPDDLEI) without ester bonded groups (also: RhodamineB label, site not given here)” as the molecule, how does the cellular uptake [7] read?
A: Its cellular uptake is “little evidence for uptake of RhodB-aCT11 is observed”.

Q: And the cellular uptake ([7]; listed as RhodamineB aCT11)?
A: The cellular uptake was “does not indicate cellular uptake”.

Q: With RQPKIWFPNRRKPWKKRPRPDDLEI (not fully specified) [alpha CT1] as the molecule, how does the “Cx43 S368 phosphorylation (PKC-ε kinase assay, blots of pS368 over total Cx43)” value [8] read?
A: Its value is roughly 3 fold.
